Reference: the supplement of paper PMC9112550, “Optimization of the antimicrobial peptide Bac7 by deep mutational scanning” (BMC Biology, 2022)

Tested on: Escherichia coli TOP10
Assay: shrunken log2 fold change of peptide-encoding DNA abundance (4.5 h post-induction vs induction); higher = less antimicrobial activity (less host growth inhibition)
Conditions: time post-induction: 4.5 h; library: site-saturation at positions 5, 18, 19, 20
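Further: peptides expressed intracellularly from a pBAD plasmid library in pooled LB shake-flask culture, induced with 0.3% L-arabinose, DNA abundance read by NGS, three biological replicates, DESeq2 with apeglm shrinkage.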

Sequence | shrunken log2 fold change
RRIRSRPPRLPRPRPRPQSRPRP | 0.0912
RRIRVRPPRLPRPRPRPHGIPRP | 0.00955
RRIRRRPPRLPRPRPRPWYDPRP | -0.25
RRIRHRPPRLPRPRPRPLMLPRP | -0.0972
RRIRRRPPRLPRPRPRPFPRPRP | 0.272
RRIRLRPPRLPRPRPRPLVQPRP | -0.0853
RRIRDRPPRLPRPRPRPYMRPRP | -0.0888
RRIRVRPPRLPRPRPRPCKNPRP | -0.0206
RRIRMRPPRLPRPRPRPPVAPRP | 1.3
RRIRERPPRLPRPRPRPWPWPRP | -0.233
RRIRLRPPRLPRPRPRPGECPRP | 0.159
RRIRHRPPRLPRPRPRPWTRPRP | -0.0761
RRIRVRPPRLPRPRPRPHASPRP | -0.15
RRIRDRPPRLPRPRPRPMFKPRP | -0.767
RRIRTRPPRLPRPRPRPRPVPRP | 0.407
RRIRFRPPRLPRPRPRPNPKPRP | 0.0977
RRIRKRPPRLPRPRPRPYGEPRP | 0.0585
RRIRRRPPRLPRPRPRPFMQPRP | -0.0994
RRIRDRPPRLPRPRPRPLHIPRP | -0.0915
RRIRFRPPRLPRPRPRPSMQPRP | -0.209
RRIRQRPPRLPRPRPRPHPVPRP | 0.0674
RRIRTRPPRLPRPRPRPMAFPRP | -0.0075
RRIRVRPPRLPRPRPRPFHTPRP | -1.18
RRIRSRPPRLPRPRPRPYLHPRP | -0.757
RRIRQRPPRLPRPRPRPLYNPRP | -0.796

Sequence | shrunken log2 fold change
RRIRSRPPRLPRPRPRPMIMPRP | -0.0825
RRIRSRPPRLPRPRPRPQCCPRP | -0.312
RRIRNRPPRLPRPRPRPQFGPRP | -0.508
RRIRIRPPRLPRPRPRPICGPRP | -0.161
RRIRNRPPRLPRPRPRPNHCPRP | -0.216
RRIRRRPPRLPRPRPRPMNHPRP | -0.281
RRIRNRPPRLPRPRPRPYCFPRP | -0.516
RRIRGRPPRLPRPRPRPEAGPRP | 1.21
RRIRCRPPRLPRPRPRPYCEPRP | -0.195
RRIRTRPPRLPRPRPRPMSQPRP | -0.000911
RRIRWRPPRLPRPRPRPSDTPRP | 0.0558
RRIRIRPPRLPRPRPRPFPDPRP | -0.131
RRIRVRPPRLPRPRPRPRYGPRP | -0.392
RRIRARPPRLPRPRPRPCHKPRP | -0.259
RRIRCRPPRLPRPRPRPHYWPRP | -0.783
RRIRLRPPRLPRPRPRPICMPRP | -0.456
RRIRHRPPRLPRPRPRPSVVPRP | 0.118
RRIRPRPPRLPRPRPRPPFIPRP | -0.0606
RRIRGRPPRLPRPRPRPHCQPRP | -0.058
RRIRKRPPRLPRPRPRPFNEPRP | 0.0442
RRIRGRPPRLPRPRPRPWHNPRP | -0.145
RRIRERPPRLPRPRPRPAVPPRP | 0.0842
RRIRLRPPRLPRPRPRPNMEPRP | 0.116
RRIRVRPPRLPRPRPRPRETPRP | 0.513
RRIRWRPPRLPRPRPRPDAAPRP | 2.23

Sequence | shrunken log2 fold change
RRIRSRPPRLPRPRPRPQEDPRP | -0.244
RRIRCRPPRLPRPRPRPISFPRP | -0.113
RRIRDRPPRLPRPRPRPWVEPRP | 0.105
RRIRKRPPRLPRPRPRPHSQPRP | -0.142
RRIRDRPPRLPRPRPRPKFLPRP | -0.241
RRIRDRPPRLPRPRPRPIGRPRP | 0.00739
RRIRVRPPRLPRPRPRPQWMPRP | -0.105
RRIRIRPPRLPRPRPRPVTNPRP | -0.208
RRIRGRPPRLPRPRPRPVHWPRP | 0.601
RRIRARPPRLPRPRPRPNGRPRP | -0.11
RRIRMRPPRLPRPRPRPNGSPRP | -0.000925
RRIRIRPPRLPRPRPRPVRNPRP | -0.0578
RRIRTRPPRLPRPRPRPISRPRP | -0.0253
RRIRRRPPRLPRPRPRPDLQPRP | 0.0255
RRIRDRPPRLPRPRPRPRDCPRP | 0.0952
RRIRHRPPRLPRPRPRPTPKPRP | -0.0377
RRIRTRPPRLPRPRPRPQNQPRP | -0.584
RRIRQRPPRLPRPRPRPSREPRP | 0.111
RRIRWRPPRLPRPRPRPYYDPRP | -0.262
RRIRYRPPRLPRPRPRPFCMPRP | -0.604
RRIRERPPRLPRPRPRPMEPPRP | 0.0704
RRIRDRPPRLPRPRPRPSAKPRP | 0.23
RRIRARPPRLPRPRPRPEAKPRP | 0.73
RRIRMRPPRLPRPRPRPWPVPRP | 0.287
RRIRWRPPRLPRPRPRPSPAPRP | 0.348

Sequence | shrunken log2 fold change
RRIRCRPPRLPRPRPRPPKKPRP | 0.132
RRIRNRPPRLPRPRPRPDCKPRP | -0.0698
RRIRHRPPRLPRPRPRPSTWPRP | -0.674
RRIRGRPPRLPRPRPRPQPDPRP | 0.821
RRIRTRPPRLPRPRPRPPEHPRP | 0.0826
RRIRKRPPRLPRPRPRPCFAPRP | 0.358
RRIRNRPPRLPRPRPRPSGKPRP | 0.0521
RRIRGRPPRLPRPRPRPDKVPRP | 0.32
RRIRTRPPRLPRPRPRPNNQPRP | -0.665
RRIRARPPRLPRPRPRPCSVPRP | 0.0736
RRIRLRPPRLPRPRPRPGFAPRP | 0.36
RRIRMRPPRLPRPRPRPDDCPRP | 0.681
RRIRYRPPRLPRPRPRPVCYPRP | -0.209
RRIRRRPPRLPRPRPRPPRIPRP | 1.08
RRIRLRPPRLPRPRPRPTFWPRP | 0.303
RRIRQRPPRLPRPRPRPDAVPRP | -0.0012
RRIRTRPPRLPRPRPRPDIKPRP | -0.197
RRIRYRPPRLPRPRPRPMQCPRP | -0.00134
RRIRYRPPRLPRPRPRPMCIPRP | -0.101
RRIRSRPPRLPRPRPRPCDFPRP | -0.108
RRIRHRPPRLPRPRPRPCCYPRP | -0.496
RRIRERPPRLPRPRPRPAGFPRP | 0.67
RRIRPRPPRLPRPRPRPKGTPRP | 0.0309
RRIRTRPPRLPRPRPRPLNNPRP | -0.135
RRIRMRPPRLPRPRPRPFYWPRP | 0.086

Sequence | shrunken log2 fold change
RRIRRRPPRLPRPRPRPAWFPRP | 0.22
RRIRIRPPRLPRPRPRPNIKPRP | -1.05
RRIRLRPPRLPRPRPRPTATPRP | 0.817
RRIRVRPPRLPRPRPRPRHGPRP | 0.176
RRIRPRPPRLPRPRPRPVGFPRP | 0.37
RRIRRRPPRLPRPRPRPRKYPRP | -0.33
RRIRMRPPRLPRPRPRPWPLPRP | 0.0935
RRIRFRPPRLPRPRPRPQNPPRP | -0.231
RRIRSRPPRLPRPRPRPPNHPRP | -0.16
RRIRYRPPRLPRPRPRPVYNPRP | -0.394
RRIRPRPPRLPRPRPRPVAIPRP | -0.0776
RRIRDRPPRLPRPRPRPMIEPRP | 0.0558
RRIRKRPPRLPRPRPRPWYQPRP | 0.218
RRIRRRPPRLPRPRPRPRYYPRP | -0.438
RRIRHRPPRLPRPRPRPMVTPRP | -1.08
RRIRERPPRLPRPRPRPAHTPRP | -0.0788
RRIRDRPPRLPRPRPRPWPRPRP | 0.211
RRIRHRPPRLPRPRPRPGQHPRP | -0.372
RRIRGRPPRLPRPRPRPSLLPRP | 0.547
RRIRPRPPRLPRPRPRPRYQPRP | 0.0923
RRIRVRPPRLPRPRPRPMISPRP | -0.237
RRIRERPPRLPRPRPRPLLTPRP | -0.116
RRIRERPPRLPRPRPRPQMQPRP | -0.173
RRIRHRPPRLPRPRPRPDTMPRP | 0.031
RRIRLRPPRLPRPRPRPPPLPRP | 1.12
